From patent US20240117018A1

Key:
Test in all cases: cell-based or functional assay
[1] = target: HIV-1 Env of pseudovirus 0815.v3.c3 (HIV-1)
[2] = target: HIV-1 Env of pseudovirus 191084 B7-19 (HIV-1)
[3] = target: HIV-1 Env of pseudovirus 191955_A11 (HIV-1)
[4] = target: HIV-1 Env of pseudovirus 211-9 (HIV-1)
[5] = target: HIV-1 Env of pseudovirus 231966.c02 (HIV-1)
[6] = target: HIV-1 Env of pseudovirus 235-47 (HIV-1)
[7] = target: HIV-1 Env of pseudovirus 263-8 (HIV-1)
[8] = target: HIV-1 Env of pseudovirus 3016.v5.c45 (HIV-1)
[9] = target: HIV-1 Env of pseudovirus 3103.v3.c10 (HIV-1)
[10] = target: HIV-1 Env of pseudovirus 3301.v1.c24 (HIV-1)
[11] = target: HIV-1 Env of pseudovirus 3817.v2.c59 (HIV-1)
[12] = target: HIV-1 Env of pseudovirus 6041.v3.c23 (HIV-1)
[13] = target: HIV-1 Env of pseudovirus 620345.c01 (HIV-1)
[14] = target: HIV-1 Env of pseudovirus 6480.v4.c25 (HIV-1)
[15] = target: HIV-1 Env of pseudovirus 6540.v4.c1 (HIV-1)
[16] = target: HIV-1 Env of pseudovirus 6545.v4.c1 (HIV-1)
[17] = target: HIV-1 Env of pseudovirus 6811.v7.c18 (HIV-1)
[18] = target: HIV-1 Env of pseudovirus 6952.v1.c20 (HIV-1)
[19] = target: HIV-1 Env of pseudovirus 89-F1_2_25 (HIV-1)
[20] = target: HIV-1 Env of pseudovirus 9004SS_A3_4 (HIV-1)
[21] = target: HIV-1 Env of pseudovirus 928-28 (HIV-1)
[22] = target: HIV-1 Env of pseudovirus A07412M1.vrc12 (HIV-1)
[23] = target: HIV-1 Env of pseudovirus BJOX010000.06.2 (HIV-1)
[24] = target: HIV-1 Env of pseudovirus BJOX025000.01.1 (HIV-1)
[25] = target: HIV-1 Env of pseudovirus C1080.c03 (HIV-1)
[26] = target: HIV-1 Env of pseudovirus C3347.c11 (HIV-1)
[27] = target: HIV-1 Env of pseudovirus C4118.c09 (HIV-1)
[28] = target: HIV-1 Env of pseudovirus P0402_c2_11 (HIV-1)
[29] = target: HIV-1 Env of pseudovirus R1166.c01 (HIV-1)
[30] = target: HIV-1 Env of pseudovirus R2184.c04 (HIV-1)
[31] = target: HIV-1 Env of pseudovirus R3265.c06 (HIV-1)
[32] = target: HIV-1 Env of pseudovirus T251-18 (HIV-1)
[33] = target: HIV-1 Env of pseudovirus T255-34 (HIV-1)
[34] = target: HIV-1 Env of pseudovirus T278-50 (HIV-1)
[35] = target: HIV-1 Env of pseudovirus X1193_c1 (HIV-1)
[36] = target: HIV-1 Env of pseudovirus X2088_c9 (HIV-1)
[37] = target: HIV-1 Env of pseudovirus X2131_C1_B5 (HIV-1)

N49P9 (antibody)
neutralization IC50 [1]: 0.02 µg/mL
neutralization IC80 [1]: 0.057 µg/mL
neutralization MPI [1]: 100
neutralization IC50 [2]: 0.042 µg/mL
neutralization IC80 [2]: 0.129 µg/mL
neutralization MPI [2]: 100
neutralization IC50 [3]: > 50 µg/mL
neutralization IC80 [3]: > 50 µg/mL
neutralization MPI [3]: 35
neutralization IC50 [4]: 0.136 µg/mL
neutralization IC80 [4]: 0.485 µg/mL
neutralization MPI [4]: 100
neutralization IC50 [5]: 0.074 µg/mL
neutralization IC80 [5]: 0.244 µg/mL
neutralization MPI [5]: 100
neutralization IC50 [6]: 0.072 µg/mL
neutralization IC80 [6]: 0.271 µg/mL
neutralization MPI [6]: 98
neutralization IC50 [7]: 0.032 µg/mL
neutralization IC80 [7]: 0.161 µg/mL
neutralization MPI [7]: 100
neutralization IC50 [8]: 0.06 µg/mL
neutralization IC80 [8]: 0.209 µg/mL
neutralization MPI [8]: 100
neutralization IC50 [9]: 17.6 µg/mL
neutralization IC80 [9]: > 50 µg/mL
neutralization MPI [9]: 55
neutralization IC50 [10]: 0.072 µg/mL
neutralization MPI [10]: 100
neutralization IC50 [11]: 1.09 µg/mL
neutralization IC80 [11]: 5.86 µg/mL
neutralization MPI [11]: 100
neutralization IC50 [12]: 0.089 µg/mL
neutralization IC80 [12]: 0.777 µg/mL
neutralization MPI [12]: 95
neutralization IC50 [13]: > 50 µg/mL
neutralization IC80 [13]: > 50 µg/mL
neutralization MPI [13]: 9
neutralization IC50 [14]: 0.017 µg/mL
neutralization IC80 [14]: 0.047 µg/mL
neutralization MPI [14]: 100
neutralization IC50 [15]: > 50 µg/mL
neutralization IC80 [15]: > 50 µg/mL
neutralization MPI [15]: 49
neutralization IC50 [16]: > 50 µg/mL
neutralization IC80 [16]: > 50 µg/mL
neutralization MPI [16]: 20
neutralization IC50 [17]: 0.249 µg/mL
neutralization IC80 [17]: 1.2 µg/mL
neutralization MPI [17]: 99
neutralization IC50 [18]: 0.095 µg/mL
neutralization IC80 [18]: 0.258 µg/mL
neutralization MPI [18]: 100
neutralization IC50 [19]: > 50 µg/mL
neutralization IC80 [19]: > 50 µg/mL
neutralization MPI [19]: 23
neutralization IC50 [20]: 0.175 µg/mL
neutralization IC80 [20]: 0.751 µg/mL
neutralization MPI [20]: 100
neutralization IC50 [21]: 0.094 µg/mL
neutralization IC80 [21]: 0.339 µg/mL
neutralization MPI [21]: 100
neutralization IC50 [22]: 0.142 µg/mL
neutralization IC80 [22]: 0.636 µg/mL
neutralization MPI [22]: 100
neutralization IC50 [23]: 0.482 µg/mL
neutralization IC80 [23]: 2.34 µg/mL
neutralization MPI [23]: 100
neutralization IC50 [24]: 0.055 µg/mL
neutralization IC80 [24]: 0.252 µg/mL
neutralization MPI [24]: 100
neutralization IC50 [25]: 0.119 µg/mL
neutralization IC80 [25]: 0.575 µg/mL
neutralization MPI [25]: 100
neutralization IC50 [26]: 0.023 µg/mL
neutralization IC80 [26]: 0.065 µg/mL
neutralization MPI [26]: 100
neutralization IC50 [27]: 0.072 µg/mL
neutralization IC80 [27]: 0.2 µg/mL
neutralization MPI [27]: 100
neutralization IC50 [28]: 0.028 µg/mL
neutralization IC80 [28]: 0.085 µg/mL
neutralization MPI [28]: 100
neutralization IC50 [29]: 0.064 µg/mL
neutralization IC80 [29]: 0.223 µg/mL
neutralization MPI [29]: 100
neutralization IC50 [30]: 0.015 µg/mL
neutralization IC80 [30]: 0.034 µg/mL
neutralization MPI [30]: 100
neutralization IC50 [31]: 0.135 µg/mL
neutralization IC80 [31]: 0.812 µg/mL
neutralization MPI [31]: 100
neutralization IC50 [32]: 0.147 µg/mL
neutralization IC80 [32]: 0.517 µg/mL
neutralization MPI [32]: 100
neutralization IC50 [33]: 0.051 µg/mL
neutralization IC80 [33]: 0.247 µg/mL
neutralization MPI [33]: 100
neutralization IC50 [34]: > 50 µg/mL
neutralization IC80 [34]: > 50 µg/mL
neutralization MPI [34]: 25
neutralization IC50 [35]: 0.025 µg/mL
neutralization IC80 [35]: 0.081 µg/mL
neutralization MPI [35]: 100
neutralization IC50 [36]: 0.07 µg/mL
neutralization IC80 [36]: 0.252 µg/mL
neutralization MPI [36]: 100
neutralization IC50 [37]: 0.082 µg/mL
neutralization IC80 [37]: 0.274 µg/mL
neutralization MPI [37]: 100
